The target of one assay is goga2_mouse Golga2 (UniProt Q921M4).
The next assay addresses straa_mouse Strada (UniProt Q3UUJ4).

Chain of Serine/threonine-protein kinase 25 (Mus musculus), Q9Z2W1 K49R (Q9Z2W1 whole entry K49R): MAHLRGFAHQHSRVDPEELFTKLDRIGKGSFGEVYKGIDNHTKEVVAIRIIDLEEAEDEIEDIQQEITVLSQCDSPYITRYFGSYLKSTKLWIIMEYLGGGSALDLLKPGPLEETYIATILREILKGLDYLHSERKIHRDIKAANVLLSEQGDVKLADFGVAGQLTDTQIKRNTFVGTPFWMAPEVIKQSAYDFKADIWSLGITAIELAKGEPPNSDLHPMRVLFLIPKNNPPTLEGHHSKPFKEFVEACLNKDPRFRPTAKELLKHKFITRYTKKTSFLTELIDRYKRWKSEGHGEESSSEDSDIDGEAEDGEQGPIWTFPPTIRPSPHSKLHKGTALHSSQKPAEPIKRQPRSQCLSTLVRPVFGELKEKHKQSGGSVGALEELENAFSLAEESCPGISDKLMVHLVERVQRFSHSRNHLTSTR
Chain of straa_mouse Strada (Q3UUJ4 whole entry): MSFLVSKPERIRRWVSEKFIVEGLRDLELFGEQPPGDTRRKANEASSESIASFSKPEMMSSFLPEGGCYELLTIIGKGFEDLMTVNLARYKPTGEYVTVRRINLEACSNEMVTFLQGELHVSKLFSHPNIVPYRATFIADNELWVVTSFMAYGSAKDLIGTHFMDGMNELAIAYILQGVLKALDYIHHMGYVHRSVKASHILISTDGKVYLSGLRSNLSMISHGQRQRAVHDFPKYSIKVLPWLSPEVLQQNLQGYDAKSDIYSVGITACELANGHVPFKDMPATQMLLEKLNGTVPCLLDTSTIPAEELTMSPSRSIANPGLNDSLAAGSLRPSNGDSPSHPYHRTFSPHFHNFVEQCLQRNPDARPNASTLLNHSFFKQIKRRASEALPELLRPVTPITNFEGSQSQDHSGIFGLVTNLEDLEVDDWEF
Chain of goga2_mouse Golga2 (Q921M4 whole entry): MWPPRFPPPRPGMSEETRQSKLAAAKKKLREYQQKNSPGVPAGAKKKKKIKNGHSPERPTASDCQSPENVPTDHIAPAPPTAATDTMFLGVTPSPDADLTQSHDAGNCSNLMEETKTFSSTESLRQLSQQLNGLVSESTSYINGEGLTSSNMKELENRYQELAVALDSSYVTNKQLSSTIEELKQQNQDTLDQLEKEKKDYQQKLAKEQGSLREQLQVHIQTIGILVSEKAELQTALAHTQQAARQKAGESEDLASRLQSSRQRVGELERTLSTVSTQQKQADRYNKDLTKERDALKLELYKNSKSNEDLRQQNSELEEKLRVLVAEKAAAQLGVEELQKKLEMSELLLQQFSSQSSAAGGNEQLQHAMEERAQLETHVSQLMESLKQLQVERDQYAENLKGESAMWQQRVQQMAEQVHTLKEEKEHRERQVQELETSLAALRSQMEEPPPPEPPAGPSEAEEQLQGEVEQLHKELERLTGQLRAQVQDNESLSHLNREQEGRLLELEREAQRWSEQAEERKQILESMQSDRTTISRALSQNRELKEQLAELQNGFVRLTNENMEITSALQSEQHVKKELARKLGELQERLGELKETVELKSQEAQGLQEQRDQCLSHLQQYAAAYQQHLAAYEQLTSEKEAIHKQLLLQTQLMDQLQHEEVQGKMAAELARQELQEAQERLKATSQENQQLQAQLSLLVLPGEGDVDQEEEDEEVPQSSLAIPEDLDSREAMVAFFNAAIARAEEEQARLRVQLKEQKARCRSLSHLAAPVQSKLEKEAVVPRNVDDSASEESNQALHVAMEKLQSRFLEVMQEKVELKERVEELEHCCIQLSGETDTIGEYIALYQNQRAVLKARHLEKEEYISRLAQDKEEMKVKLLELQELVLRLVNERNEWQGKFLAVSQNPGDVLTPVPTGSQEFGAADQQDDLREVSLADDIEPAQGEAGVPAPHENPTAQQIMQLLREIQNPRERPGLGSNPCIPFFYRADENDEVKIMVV

As for “Serine/threonine-protein kinase 25 (Mus musculus), Q9Z2W1 K49R”, the entries for the “effect of a mutation on the interaction” value with goga2_mouse Golga2 and with straa_mouse Strada were “increasing interaction” and “decreasing interaction”, respectively.

Values taken from IntAct's records for PubMed 21111240.
